Consider 1 substance from publication PMC6922093.

Experiment [1] deals with RSV strain B18537 DS-Cav1 F glycoprotein (prefusion-stabilized soluble F trimer, subtype B) (RSV subtype B strain B18537 | phage T4). Kind of experiment: crystal structure; crystals in 1.2M ammonium sulfate, 0.1M sodium acetate pH5.5, 0.1M lithium sulfate; space group P4(1)32, 1 protomer per asymmetric unit; trimer by crystal symmetry.
Experiment [2] shares this target. Kind of experiment: SEC; 120 mL Superdex-200 gel filtration column in PBS buffer; single monodisperse peak compared with protein standards. A general note: In gel filtration, larger molecules generally elute earlier.

Turning to “RSV strain B18537 DS-Cav1 F glycoprotein (prefusion-stabilized soluble F trimer, subtype B) (domain or fragment)”, the stoichiometry N in experiment [1] and in experiment [2] was 3 each time.
